Test results published in the supplement of paper PMC9732359.
± gives the uncertainty stated by the source.

Test: protein stability index of a GFP-peptide fusion (yeast GPS) (PSI 1-4); higher = more stable; sorted into four equal gates, so the index is relative within each strain
Method in brief: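 Each library plasmid carries Cherry plus GFP with a tiled 17-residue yeast protein peptide fused downstream, and the pooled library was carried in yeast. Mid-log cultures in leucine-free medium were sorted into four equal gates by GFP/Cherry ratio. Reads from Illumina sequencing of PCR-amplified plasmids from each gate were assigned to strains by barcodes. Per peptide, the protein stability index was computed as the summed products of gate read frequency and gate number.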

Sequence	protein stability index (doa10∆)	protein stability index (pdr5∆)	protein stability index (san1∆)	protein stability index (ubr1∆)
ITATLVGTVRCEEEKKT [CSL4]	1.54 ± 0.14	1.9 ± 0.25	1.67 ± 0.16	1.58 ± 0.079
HPIRVLMASVILDSLPS [YDL116W/NUP84]	1.7 ± 0.051	1.52 ± 0.042	1.62 ± 0.056	1.62 ± 0.048
EEKGWVPVTKLGRLVKA [RPS2]	3.45 ± 0.086	3.44 ± 0.13	3.51 ± 0.072	3.48 ± 0.072
KMWFDVQLRYGDYDSHD [PRP8]	1.78 ± 0.12	2.06 ± 0.15	–	3.06 ± 0.2
CQILDGELDVLQIESVT [PRP8]	2.56 ± 0.05	2.78 ± 0.062	2.55 ± 0.065	2.86 ± 0.059
PGNRNADNVDKILEQFE [FAS2]	1.63 ± 0.11	1.53 ± 0.18	2.5 ± 0.19	2.5 ± 0.087
KVAPAPFGAKSTKSNKA [RPL8B]	2.6 ± 0.085	2.78 ± 0.073	2.74 ± 0.061	2.7 ± 0.043
QFSESTHNDIDSTAVAL [YJL039C/NUP192]	2.76 ± 0.098	2.5 ± 0.2	2.71 ± 0.087	3.16 ± 0.071
ARNLIEDEDDGESEKSS [RPC53]	3.06 ± 0.12	3.68 ± 0.18	–	3.29 ± 0.11
FFNGKALNNAIPGGPKF [PRP8]	3.29 ± 0.13	3.02 ± 0.16	2.87 ± 0.17	2.94 ± 0.1
LEWNMANLLFKKEKLKQ [RPC82]	2.13 ± 0.11	1.45 ± 0.049	1.38 ± 0.13	1.37 ± 0.082
HTKSDERSELLRLFNAP [SNF2]	2.83 ± 0.06	2.72 ± 0.065	2.78 ± 0.049	3.04 ± 0.06
SSLVQKGLETIDNGAES [RPC53]	2.65 ± 0.26	3.02 ± 0.21	–	–
RKHRNAQFAGRASIEYY [DIS3]	2.99 ± 0.13	3.11 ± 0.072	2.8 ± 0.13	2.99 ± 0.094
DVLKVNTLVRPNGTKKA [RPL25]	2.75 ± 0.087	2.91 ± 0.08	2.89 ± 0.1	3.26 ± 0.067
NKVQIMIATNVAARGLD [PRP28]	1.45 ± 0.061	1.5 ± 0.078	1.43 ± 0.15	1.19 ± 0.055
LGFTPGELRSYLKGATG [FAS1]	3.26 ± 0.15	3.66 ± 0.28	3.33 ± 0.17	3.41 ± 0.17
HTLMSFAGEAGDTVQFA [PRE1]	3.01 ± 0.11	3.3 ± 0.15	2.95 ± 0.095	3.22 ± 0.12
DSSMTTVQENELLKSSL [AAR2]	2.79 ± 0.12	3.32 ± 0.1	3.12 ± 0.095	2.94 ± 0.13
QQQQQQQQRRQLTPQQQ [GAL11]	2.764 ± 0.025	2.826 ± 0.025	2.877 ± 0.02	2.833 ± 0.022
SLQDLIYKRGQAGVTKA [SMC2]	1.58 ± 0.15	1.94 ± 0.094	1.85 ± 0.15	2.3 ± 0.079
KSLLLNTLNIDNTARVI [BRN1]	2.71 ± 0.057	2.48 ± 0.052	2.47 ± 0.066	2.42 ± 0.034
KEVIELPVKHPELFESL [RPT6]	2.98 ± 0.064	3.04 ± 0.036	3.05 ± 0.054	3.09 ± 0.055
VDSRNETDHKTNENGET [SRB4]	3.26 ± 0.16	2.75 ± 0.18	2.77 ± 0.098	3.27 ± 0.19
YTDRDQDEVNKGPAIDE [NNF1]	2.12 ± 0.092	2.01 ± 0.085	1.89 ± 0.13	2.13 ± 0.14
NKINSRNSWNFALIDYF [BRN1]	2.13 ± 0.2	1.27 ± 0.075	1.11 ± 0.11	1.1 ± 0.073

Sequence	protein stability index (doa10∆)	protein stability index (pdr5∆)	protein stability index (san1∆)	protein stability index (ubr1∆)
DMVKLDINPPLVFILAV [RRP42]	2.69 ± 0.068	2.3 ± 0.043	2.2 ± 0.07	2.19 ± 0.035
YDPKDALKNACNSIINK [RPB11]	3.32 ± 0.24	3.23 ± 0.14	3.2 ± 0.084	3.37 ± 0.15
GQSAGKLAAIVEIIDQK [RPL14A]	3.28 ± 0.098	3.29 ± 0.11	2.82 ± 0.11	3.41 ± 0.066
LGKKGVPYVVTHDGRTI [RPS4A]	2.43 ± 0.068	2.52 ± 0.092	1.66 ± 0.098	2.13 ± 0.054
QRQKTYVERFETQLKVV [SMC1]	1.73 ± 0.065	2.51 ± 0.08	1.23 ± 0.2	1.24 ± 0.061
VMLLGTPDANLISKPAK [UBP6]	–	3.28 ± 0.13	2.98 ± 0.13	3.32 ± 0.12
MASNEVLVLRGTLEGHN [ASC1]	3.06 ± 0.17	2.22 ± 0.16	3.24 ± 0.13	3.16 ± 0.25
IMELPGVYSDDELLSQL [SRP68]	2.99 ± 0.065	3.13 ± 0.056	3.22 ± 0.045	3.05 ± 0.07
GPSVESYELRNTTTYKS [SNF5]	2.75 ± 0.1	2.9 ± 0.099	2.41 ± 0.094	1.99 ± 0.082
PTVHNSTAAAPIAAPKK [PGD1]	2.81 ± 0.065	3.08 ± 0.071	2.83 ± 0.052	3.072 ± 0.029
LIPCKYLNRHADFFVRE [RPN7]	2.62 ± 0.092	2.49 ± 0.12	2.18 ± 0.19	2.81 ± 0.11
LTHRLGGDTCSSDGALC [POP1]	2.96 ± 0.11	3.39 ± 0.084	3.17 ± 0.12	3.19 ± 0.054
SQTNNSFLSGVKSLLSE [SIR4]	2.98 ± 0.069	3.26 ± 0.067	3.14 ± 0.046	3.1 ± 0.056
PYYKYLCEEYLVNNGQS [RPN7]	2.86 ± 0.087	2.41 ± 0.091	2.61 ± 0.088	1.77 ± 0.067
GKLFSDIKVLKRQLIKE [YIL149C/MLP2]	3.01 ± 0.12	2.56 ± 0.08	2.59 ± 0.078	2.42 ± 0.04
CKKKEMSQYQSTMKENK [YIL149C/MLP2]	2.49 ± 0.088	2.76 ± 0.073	1.42 ± 0.23	2.55 ± 0.071
KNIHISKRSKIDIINKL [YML103C/NUP188]	1.34 ± 0.17	–	–	1.49 ± 0.14
QRYQDLSQQQKDAQKKD [YIL149C/MLP2]	3.09 ± 0.08	3.08 ± 0.062	2.79 ± 0.071	2.94 ± 0.046
DNEDSDNLFGETESSVS [SWI3]	3.48 ± 0.14	3.07 ± 0.081	–	2.93 ± 0.085
SKPSTASPSAHTSSSDG [RPN4]	2.71 ± 0.064	3.04 ± 0.064	2.66 ± 0.05	2.92 ± 0.045
LERTAIELKTDWVRFLA [RPN1]	1.58 ± 0.13	1.49 ± 0.098	1.55 ± 0.11	1.17 ± 0.067
EKGNAKMIDFATLSKLK [SIR3]	3.15 ± 0.074	3.08 ± 0.057	3.33 ± 0.037	3.24 ± 0.035
KSYYLNTVMLQGIFKNS [AAR2]	1.34 ± 0.069	1.26 ± 0.076	2.14 ± 0.14	1.24 ± 0.054
SENEDTKDLLSKSPSEW [CSE2]	3.21 ± 0.067	3.11 ± 0.067	3.15 ± 0.051	3.19 ± 0.046
VIKLAKYPDYFPEWKKS [ARP9]	3 ± 0.098	2.94 ± 0.091	2.82 ± 0.064	3.27 ± 0.13
DTFRAGAFDQLKQNAIR [SRP54]	2.82 ± 0.058	2.99 ± 0.056	3.09 ± 0.053	3.09 ± 0.076
